Experiments:
Experiment in all cases: fluorescence polarisation; fluorescence anisotropy; Rtt103p CID titrated into 10 nM N-terminally FAM-labelled CTD peptide; 10°C; 35 mM KH2PO4, 100 mM KCl, pH 6.8; 1:1 model with non-specific binding (DynaFit)
[1] = biological target: FAM-PSY(pS)P(pT)…
[2] = biological target: FAM-…
[3] = biological target: FAM-PSY(pS)…
[4] = biological target: FAM-PSYSP(pT)SPSYSP(pT)SPS
[5] = biological target: FAM-PSYSP(pT)…

Kd [1]: 43 µM
Kd [2]: 64 µM
Kd [3]: 6 µM
Kd [4]: 6 µM
Kd [5]: 15 µM
Substance: Rtt103p CTD-interacting domain (CID) (3-131-6xHIS) (from UniProt Q05543 3-131) (domain or fragment)

— article PMC5452035, “Structural insight into recognition of phosphorylated threonine‐4 of RNA polymerase II C‐terminal domain by Rtt103p” (EMBO Reports, 2017)
